Positions of bridges follow the written chain, without caps; N, C: chain ends. No end group written: not given here. *: point of attachment. Biotin = O=C1N[C@H]2[C@H](CS[C@H]2CCCCC(=O)*)N1

For one test, the target named is T1, human serum albumin (human, UniProt P02768 25-609).
T1 construct: Control protein; also called HSA
The experiment in a line: ELISA on coated protein; biotinylated peptide premixed 4:1 with SA-AP; absorbance. The method, then:
(§1) The binding activity of the thus obtained biotinylated synthetic peptides to human IgG was assayed by an ELISA assay. […] Specifically, wells coated with human IgG (100 ng/50 μl/well) were blocked by the addition of 0.5% BSA. A biotinylated synthetic peptide and alkaline phosphatase-labeled streptavidin (SA-AP) were mixed in advance at a molar ratio of 4:1 and then the mixture was added to the well, followed by 1 hour of reaction. Para-nitrophenyl phosphate (Wako) was used for color development. Detection was carried out by measuring absorbance at 405 nm. As a positive control of human IgG, the Fc fragment of hIgG was used. As other control proteins, human IgA and IgE, mouse IgG, IgA, and IgE, hTF, fetal bovine serum (FBS), HSA, BSA, and gelatin were used.

In the next test the target is T2, human transferrin (human, UniProt P02787 20-698).
T2 construct: Control protein; also called hTF; ThF
Described as above. As for the experimental part:
as §1

The target in a further test is T3, bovine serum albumin (bovine, UniProt P02769 25-607).
T3 construct: Control protein; also called BSA
The test is described as above. The method, then: as §1

For test [1], the target named is T4, polyclonal human IgG antibody (serum-derived) (human).
T4 construct: also called hIgG
Put plainly: SPR (BIAcore2000, 25 C), biotinylated peptide on SA chip, human IgG as analyte (41 to 660 nM). The method, then: SPR analysis was carried out using BIAcore2000 (BIAcore) at 25° C. Necessary reagents and sensor chips were purchased from BIAcore and then used. […] The amount of each peptide to be immobilized was adjusted so that the RU (response unit) ranged from 1500 to 2000. […] Binding reaction between human IgG and the peptides was measured. Thereafter, washing with running buffer (HBS-T) was conducted and then dissociation reaction was measured. For washing/elution of bound analytes from the sensor chips, 0.2 M glycine-HCl buffer (pH 2.7) was used. Binding parameters were analyzed using BIA evaluation Version 3.2 software.

Test [2] deals with T5, anti-HER2 human antibody (Herceptin), acid-treated.
T5 construct: Same antibody as m38 after acid treatment and neutralisation; also called acid-treated anti-HER2 human IgG; acid-denatured anti-HER2 human IgG
Put plainly: SPR, peptides on sensor chips, antibody 250 nM; acid treatment pH 2.7, 40 C, 10 min; reference Fc-III peptide. The method, then:
(§2) For this SPR analysis, human IgG samples were prepared via acid treatment under various conditions as described below and then tested. […] Subsequently, 30 μl (or 20 μl for a sample to which glycine-HCl with pH 2.7 had been added) of 1 M Tris-HCl (pH 8.7) was added to each solution for neutralization.

In test [3] the target is T5, anti-HER2 human antibody (Herceptin), …. The experiment in a line: SPR, peptides on sensor chips, antibody 250 nM; acid treatment pH 2.7, 20 C, 10 min; reference Fc-III peptide. As for the experimental part:
as §2

Test [4] shares this target. The experiment in a line: SPR, peptides on sensor chips, antibody 250 nM; acid treatment pH 2.7, 30 C, 10 min; reference Fc-III peptide. As for the experimental part: as §2
Test [5] shares this target. Put plainly: SPR, peptides on sensor chips, antibody 250 nM; acid treatment pH 2.1, 40 C, 10 min; reference Fc-III peptide. As for the experimental part:
as §2

Test [6] has the same target. The experiment in a line: SPR, peptides on sensor chips, antibody 250 nM; acid treatment pH 2.1, 20 C, 10 min; reference Fc-III peptide. The method, then:
as §2

T3 sequence (P02769 25-607 limits assumed): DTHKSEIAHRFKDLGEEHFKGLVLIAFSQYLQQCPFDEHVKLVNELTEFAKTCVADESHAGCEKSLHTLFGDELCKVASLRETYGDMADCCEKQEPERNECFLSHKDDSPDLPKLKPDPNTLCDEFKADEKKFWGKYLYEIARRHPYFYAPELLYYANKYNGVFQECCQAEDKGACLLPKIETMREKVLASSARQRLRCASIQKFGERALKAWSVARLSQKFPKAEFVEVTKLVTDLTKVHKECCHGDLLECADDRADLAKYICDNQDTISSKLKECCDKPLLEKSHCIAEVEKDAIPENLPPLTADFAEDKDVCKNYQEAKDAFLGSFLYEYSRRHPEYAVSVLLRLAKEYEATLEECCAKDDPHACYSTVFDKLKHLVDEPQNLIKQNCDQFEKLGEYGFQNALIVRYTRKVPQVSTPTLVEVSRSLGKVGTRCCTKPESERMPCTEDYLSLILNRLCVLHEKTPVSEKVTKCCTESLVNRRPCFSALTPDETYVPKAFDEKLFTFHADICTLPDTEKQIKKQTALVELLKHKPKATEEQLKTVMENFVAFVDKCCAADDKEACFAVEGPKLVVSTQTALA
T2 sequence (P02787 20-698 limits assumed): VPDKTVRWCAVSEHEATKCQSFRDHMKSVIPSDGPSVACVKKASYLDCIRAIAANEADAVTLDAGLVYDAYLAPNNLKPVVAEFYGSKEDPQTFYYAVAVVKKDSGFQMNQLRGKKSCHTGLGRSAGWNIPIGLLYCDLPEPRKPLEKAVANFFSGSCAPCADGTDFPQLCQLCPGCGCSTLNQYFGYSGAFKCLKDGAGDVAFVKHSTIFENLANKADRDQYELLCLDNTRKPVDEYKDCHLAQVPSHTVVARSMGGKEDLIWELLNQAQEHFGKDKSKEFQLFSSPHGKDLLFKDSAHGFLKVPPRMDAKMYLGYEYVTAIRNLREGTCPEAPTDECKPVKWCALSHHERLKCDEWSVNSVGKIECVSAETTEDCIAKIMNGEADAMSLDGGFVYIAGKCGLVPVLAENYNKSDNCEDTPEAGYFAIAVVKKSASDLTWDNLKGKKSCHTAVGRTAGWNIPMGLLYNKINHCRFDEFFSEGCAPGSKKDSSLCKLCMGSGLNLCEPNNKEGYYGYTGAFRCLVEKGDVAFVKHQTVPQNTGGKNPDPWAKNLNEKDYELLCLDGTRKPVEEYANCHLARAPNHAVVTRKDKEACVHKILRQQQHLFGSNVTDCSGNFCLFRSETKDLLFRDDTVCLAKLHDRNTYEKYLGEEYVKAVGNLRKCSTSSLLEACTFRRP

On to {Biotin-LC}-GCTGYWPKAWGLCG (disulfide 2-13 (inferred), also called biotinylated IMGpep-4) [synthetic peptide IMGpep-4], for which the binding result with human serum albumin is on record as “no binding”. Also, in the test with human transferrin, the binding result is recorded as “no binding”. Also, the binding result in the test with bovine serum albumin was “no binding”. In test [1], this molecule showed a Kd of 28 nM, a koff of 0.00041 s⁻¹ and a kon of 14000 M⁻¹ s⁻¹.

Regarding GCTGYWPRAWGLCG (disulfide 2-13 (inferred); not fully specified (N-terminus), also called biotinylated IMGpep-4K6R) [synthetic peptide IMGpep-4K6R], the binding result with human serum albumin, with human transferrin and in the test with bovine serum albumin was “no binding” throughout. Further, the “generation rate of acid-denatured IgG (ratio a/b of the SPR response on the IMGpep-4K6R chip to that on the Fc-III chip)” value is 40% in [2]; ~5% in [3]; 9.7% in test [4]; ~40% in test [5]; 7.8% in [6]. Moreover, the dissociation constant (Kd) in [1] came out at 24 nM.

B1: synthetic peptide IMGpep-1CS (peptide)
peptide: {Biotin-LC}-GSGYWRSEWGLSG
notes: Both Cys of IMGpep-1 replaced by Ser; linear control peptide; also called biotinylated IMGpep-1CS
Regarding B1, the binding result with human serum albumin, with human transferrin and with bovine serum albumin was “no binding” throughout.

Turning to {Biotin-LC}-GCGYWRSEWGLCG (disulfide 2-12 (inferred), also called biotinylated IMGpep-1) [synthetic peptide IMGpep-1], the binding result with human transferrin is given as “no binding”. The binding result with bovine serum albumin was “no binding”. In test [1], this molecule showed a Kd of 17 nM, a koff of 0.00034 s⁻¹ and a kon of 20000 M⁻¹ s⁻¹.

Regarding {Biotin-LC}-GCGYWRSQWGLCG (disulfide 2-12 (inferred), also called biotinylated IMGpep-1E6Q) [synthetic peptide IMGpep-1E6Q], in the test with human serum albumin, the binding result is “no binding”. Further, the binding result with human transferrin is “no binding”. The binding result in the test with bovine serum albumin is “no binding”. In [1], this molecule had a Kd of 21 nM, a koff of 0.00031 s⁻¹ and a kon of 15000 M⁻¹ s⁻¹.

For the origin of these results see US20100297606A1 (KAGOSHIMA UNIVERSITY, published 2010).
